Test results: patent publication US20190300610A1
pKd: −log10 of the molar value.

Key:
Assay in all cases: reported; reported KD
mFcRn = biological target: mFcRn
mFcgRIII = biological target: mFcgRIII
mFcgRIIb = biological target: mFcgRIIb
mFcgRIV = biological target: mFcgRIV

| pKd (mFcRn) | pKd (mFcgRIII) | pKd (mFcgRIIb) | pKd (mFcgRIV) | Substance |
| --- | --- | --- | --- | --- |
| 7.14 | 5.03 | 5.96 | 6.55 | hIgG1 |
| 7.20 | 5.01 | 5.10 | – | hIgG2 |
| 6.64 | 5.89 | 6.15 | 6.77 | hIgG3 |
| 6.94 | 4.68 | 4.96 | 4.59 | hIgG4 |
| 5.94 | 5.49 | 6.52 | – | mIgG1 |
| 6.31 | 5.84 | 5.62 | 7.46 | mIgG2a |
| 6.26 | 5.81 | 6.35 | 7.23 | mIgG2b |
| 6.85 | – | – | – | mIgG3 |
